Results as given in the nanobody polyreactivity screen of Harvey et al. (2022).

Assay: yeast display, Sf9 membrane polyspecificity reagent, FACS + sequencing; frameworks hold sequencing errors
In short: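 Synthetic nanobody libraries on Saccharomyces cerevisiae BJ5465 were galactose-induced for 36–48 hours, stained 1 hour at 4 °C with 10% biotinylated, detergent-solubilized Sf9 membrane reagent and enriched on streptavidin microbeads. FACS then separated cells into low and high (top ~1%) gates by anti-HA (expression) and streptavidin (reagent binding) fluorescence. Genes were colony-PCR amplified, MiSeq 2 × 250 sequenced and CDR-length filtered. A clone's polyreactivity label is that of its gate of origin.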

Sequence	polyreactivity (PSR sort gate)
QVQLVESGGGLVQAGGSLRLSCAASGYIFFTNAMGWYRQAPGKERELVAAISTIDGSTYYADSVKGRFTISRDNAKNTVYLQMNSLKPEDTAVYYCATDTPFISSLAYDYWGQGTQVTVSS	low polyreactivity
QVQLVESGGGLVQAGGSLRLSCAASGRIFGGYAMGWYRQAPGKERELVAAIDLSGGSTYYADSVKGRFTISRDNAKNTVYLQMNSLKPEDNAVYYCAADAYPVYYYLSTYDPWYDYWGQGTQVTVSS	low polyreactivity
QVQLVESGGGLVQAGGSLRLSCAASGIFWYYAMGWYRQAPGKERELVAAISSGGSTYYADSVKGRFTISRDNAKNTVSLQMNSLKPEDTAVYYCNAVYWKASHYGYGYWGQGTQVTVSS	high polyreactivity
QVQLVESGGGLVQAGGSLRLSCAASGIIFRDYGMGWSRQAPGKEREFVATITYSGGGTYYADSVKGRFTISRDKAKNTVYLQMNSLKPEDTAVYYCAAYPFYYDLAYDYWGQGTQVTVSS	low polyreactivity
QVQLVESGGGLVQAGGSHRLSCAASGIIYYYNTMGWYRQAPGKEREFVAAISNSGGRTYYADSVKGRFTISRDNAKNTVYLQMNSLKPEDTAVYYCAARYVLFSNRFDYWGQGTQVTVSS	high polyreactivity
QVQLVESGGGLVQAGGSLRLSCAASGSTFSRYAMGWYRQAPGKERELVAAISSSGGSTYYADSVKGRFTISRDNAKNTVYLQMNSLKPEDTAVYYCAARIWRTRRYDYWGQGTQVTVSS	high polyreactivity
QVQLVESGGGLVQAGGSLRLSCAASGSTFGTNAMGWYRQAPGKEREFVASISVSGGSTYYADSVKGRFTISRDNAKNTVYLQMNSLKPEDTAVYYCNRRAYRRYQFGYWGQGTQVTVSS	high polyreactivity
QVQLVESGGGLVQAGGSLRLSCAASGITFVANAMGWYRQAPGKETELVAGITQTGGSTYYADSVKGRFTISRDKAKNTVYLQMNSQKPEDTAVYYCAATYRRLRYGKLYYYWGQGTQVTVSS	high polyreactivity
QVQLVESGGGLVQAGGSLRLSCAASGRIFYPNAMGWYRQAPGKERELVAAISSGGRTNYADSVKGRFTISRDNAKNTVYLQMNSLKPEDNAVYYCAARDRSQYTSTYAFGGGYWGHGTQVTVSS	low polyreactivity
QVQLVESGGGLVQAGGSLRLSCAASGLTFYRNAMGWYRQAPGKERELVAAITKSGARTYYAVSVKGRFTISRDNAKNTVYLQMNSLKPEDTAVYYCAADALNTYYYWGQGTQVTVSS	high polyreactivity
QVQLVESGGGLVQAGGSLRLSCAASGNTFVGYTMGWYRQAPGKEWELVAAISWNGGTTYYADSVKGRFTISRDNAKNTVYLQMNSLKPEDTAVYYCNTRWYTRRFDYWGQGTQVTVSS	high polyreactivity
QVQLVESGGGLVQAGGSLRLSCAASGSIFGYYAMGWYRQAPGKERELVAAISSSGASTYYADSVKGRFTISRDNAKNTVYLQMNSLKPEDTAVYYCNADRRYPTRGGYWGQGTQVTVSS	high polyreactivity
QVQLVESGGGLVQAGGSLRLSCAASGRTFKKYAMGWYRQAPGKEREVVAAITSRVGSTSYADSVKGRFTISRDNAKNTVYLQMNSLKPEDTAVYYCAARYSVGTGYGYWGQGTQVTVSS	high polyreactivity
QVQLVESGGGLVQAGGSLRLTCAASGSIFYTNAMGWYRQAPGKERELVAAIRWSGGRTYYADSVKGRFTISRDNAKNTVYLQMNSLKPEDTAVYYCTVVVRYPSAYAYWGQGTQVTLSS	high polyreactivity
QVQLVESGGALVQAGGSLRLSCAASGSIFGSYALGWYRQAPGKERELVASITRVDSTNYADSVKGRFTISRDNAKNTVYLQMNSLKPEDTAVYYCAADITSPAYATYDYWGQGTQVTVSS	low polyreactivity
QVQLEESGGCLVQAGGSLRLSCAASGITFVLYAMGWYRQAPGTERELVAAINIDGNTNYADSVKGRFTISRDNAKNTVYLQMNSLKPEDTAVYYCAATFVPAQSRYTCSKYDYWGQGTQVTVSS	low polyreactivity

Sequence	polyreactivity (PSR sort gate)
QVQLEESGGGLVQAGGSLRLSCAASGRIFYLNAMGWYRQAHGKERDLVAAITRSAASTHYADSVKGRFTISRDNAKNTVYLQLNSLKPEDTAVYYCAARFWYDYRHYDYWGQGTQVSVSS	low polyreactivity
QVQLEESGGGLVQAGGSLRLSCAASGRIFRGNAIAWYRQAPGKERELVASITRGNNTYYADSVKGRFTISRDNAKNTVYLQMNSLKPEDTAVYYCAKRYIYRYYWGQGTQVTVSS	high polyreactivity
QVQLVESGGGLVQAGGSLRLSCAASGSTFDANAMGWYRQAPGKERELVAAITSNGGSTYYADSVKGRFTISRDNAKNTVYLQMNSLKPEDTAVYYCDTEQHTVQDYDYWGQGTQVTVSS	low polyreactivity
QVQLVESGGGLVQAGGSLRLSCAASGYTFGYYAMGWYRQAPGKERELVAAINWSGGSTYYADSVKGRFTISRDNAKNTVYLQMNSLKPEDTAVYYCNRRTGSYGRTPVWKGEYYYWGQGTQVTVSS	high polyreactivity
QVQLVESGGGLVQAGGSLRLSCAASGSIFYRNVMGWYRQAPGKERELVAAISRSGGSTYYADSVKGRFTISRDNAKNTVYLQMNSLQPEDTAVYYCAGRYSPFYYWGQGTQVTVSS	high polyreactivity
QVQLVESGGGLVQAGGSLRLSCAASGLTFSAYAMGWYRQAPGKERELVAAITSSGGSTYADSVKGRFTISRDNAKNTVYLQMNSLKPEDTAVYYCAARVVRYGYKYYYWGQGTQVTVSS	low polyreactivity
QVQLVESGGGLVQAGGSLRLSCAASGLIFPRYAMGWYRQAPGKERELVAAITSRAGSTYYADSVKGRFTISRDNAKNTVYLQMNSLKPEDTAVYYCAAVSDGWDGDMYYWGQVTQVTVSS	low polyreactivity
QVQLVESGGGLVQAGGSLRLSCAASGSISRYYAMGWYRQAPGKERELVAAISSNGGSTYYADSVKGRFTISRDNAKNTVYLQMNSLKPEDTAVYYCNAYYVGYIRYWTNKLVDYWGQGTQVTVSS	high polyreactivity
QVQLVESGGGLVQAGGSLRLSCAASGSIFSEYAMGWYRQAPGKERELVAAISKSTGRTYYADSVKGRFTISRDNAKNTVYLQMNSLKPEDTAVYYCNAVRRAFIASYDYWGQGTQVTVSS	high polyreactivity
QVQLVESGGGLVQAGGSLRLSCAASGLIFRRYAMGWYRQAPGKERELVAAISRTGGTTYYADSVKGRFTISRDTAKNTVYLQMNSLKPEDTAVYYCAAAGQGPDYDYWGQGTQVSVSS	high polyreactivity
QVQLVESGGGLVQAGGSLRLSCAASGRTFIRNAMGWYRQAPGKERELVAAISGTGGSTYYADSVKGRLTISRDNAKNTVYLQMNSLKPEDTAVYYCAADRPAPGYDYWGQGTQVTVSS	low polyreactivity
QVQLVESGGGLVQAGGSLRLSCAASGRIFNYYAMGWYRQAPGKERELVAAISARGGSTYYADSVKGRFTISRDNAKNTVYLQMNSLKPEDTAVYYCAVSSGSYGYGYWGQGTQVTVSS	high polyreactivity
QVQLVESGGGLVQAGGSLRLSCAASGIIFYGNVMGWYRQAPGKERELVAGINSSGASTYYADSVKGRFTISRDNAKNTVYLQMNSLKPEDTAVYYCAARGPRVRLNSYYAGRYDYWGQGTQVTVSS	low polyreactivity
QVQLVESRGALVQAGGSLRLSCAASGSIFSRYAMGWYRQAPGKERELVAAIRWTDSSTYYADSVKGRFTISRDHAKNTVYLQMNSLKPEDTAVYDCAKVYEGGSNKVDYWGQGTQVTVSS	low polyreactivity
QVQLVESGGGLVQAGGSLRLSCAASGRIFRYYDMAWYTQAPGKEREFVAAITRSGAITYYADSVKGRFTKSRDNAKNTVYLQMNSLKPEDTAVYYCAARYWAKFGYWGQGTQVTVSS	low polyreactivity
QVQLVESGGGLVQAGGSLRLSCAASGIIFYEYAMGWYRQAPGKERELVATITSGGSTNYADSVKGRFTISRDNAKNTVYLQMNSLKPEDTAVYYCNADWWWGYGYWGQGTQVTVSS	low polyreactivity
